Results published in the supplement of paper PMC7125110.
± gives the standard error. For part of these data: Fewer inactive variants are shown than the library holds.

B1: glmS ribozyme (parent)
chain: AUAAAAGCGCCAGAACUACAGAAAUGUAGUUGACGAGGAGGAGGUUUAUCGAAUUUUCGGCGGAUGCCUCCAAA

What was measured:
Settings in all cases: with glucosamine-6-phosphate
glucosamine-6-phosphate [1] = variants of: B1; experiment: kcat; higher = faster cleavage; RNA array
Summary of the method: (§1)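 Over ~14 h at 37 °C, tiles were imaged as glucosamine-6-phosphate (40 μM to 10 mM) in HEPES/KCl/Mg(OAc)2 buffer flowed across sequenced MiSeq chips. The chips carried barcoded ribozyme variants transcribed in situ by E. coli RNA polymerase and tracked with a hybridised Cy3 probe. After normalisation to baseline and to non-cleaving reference variants, one- or two-exponential decay fits of per-tile medians gave kobs. kcat and KM followed from weighted Michaelis–Menten fits across concentrations.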

glucosamine-6-phosphate [2] = variants of: B1; experiment: KM; higher = weaker cofactor use; RNA array
Summary of the method: as §1

glucosamine-6-phosphate [3] = variants of: B1; experiment: self-cleavage kobs at 160 uM GlcN6P; higher = faster cleavage; RNA array
Summary of the method: as §1

glucosamine-6-phosphate [4] = variants of: B1; experiment: self-cleavage kobs at 640 uM GlcN6P; higher = faster cleavage; RNA array
Summary of the method: as §1

glucosamine-6-phosphate [5] = variants of: B1; experiment: self-cleavage kobs at 2500 uM GlcN6P; higher = faster cleavage; RNA array
Summary of the method: as §1

glucosamine-6-phosphate [6] = variants of: B1; experiment: self-cleavage kobs at 10000 uM GlcN6P; higher = faster cleavage; RNA array
Summary of the method: as §1

glucosamine-6-phosphate [7] = variants of: B1; experiment: self-cleavage kobs at 40 uM GlcN6P; higher = faster cleavage; RNA array
Summary of the method: as §1

Row | Variant | kcat (glucosamine-6-phosphate [1]) [s⁻¹] | KM (glucosamine-6-phosphate [2]) [µM] | self-cleavage kobs at 160 uM GlcN6P (glucosamine-6-phosphate [3]) [s⁻¹] | self-cleavage kobs at 640 uM GlcN6P (glucosamine-6-phosphate [4]) [s⁻¹] | self-cleavage kobs at 2500 uM GlcN6P (glucosamine-6-phosphate [5]) [s⁻¹] | self-cleavage kobs at 10000 uM GlcN6P (glucosamine-6-phosphate [6]) [s⁻¹] | self-cleavage kobs at 40 uM GlcN6P (glucosamine-6-phosphate [7]) [s⁻¹]
1 | C11U A12G | 0.00116 ± 0.00011 | 1760 ± 310 | 9.07e-05 ± 1.3e-05 | 0.000315 ± 4.3e-05 | 0.00079 ± 8.1e-05 | 0.000933 ± 8.4e-05 | –
2 | C11U A12U | 0.00624 ± 0.00051 | 1290 ± 150 | 0.000886 ± 0.00016 | 0.00209 ± 0.00035 | 0.00418 ± 0.00075 | 0.00547 ± 0.00057 | 0.000179 ± 1.8e-05
3 | C10G A52U | < 1e-05 | – | < 1e-05 | < 1e-05 | – | – | < 1e-05
4 | A12C G44C | 4.97e-05 ± 2.4e-06 | 4150 ± 610 | < 1e-05 | – | – | 3.51e-05 ± 7.6e-06 | –
5 | A12C G44A | 0.000291 ± 2.6e-05 | 1580 ± 270 | – | 8.35e-05 ± 1.2e-05 | 0.000204 ± 4e-05 | 0.00024 ± 3.8e-05 | –
6 | C11G G59A | 0.000401 ± 1.7e-05 | 8670 ± 560 | – | 2.81e-05 ± 1e-05 | 8.92e-05 ± 1.8e-05 | 0.000215 ± 3.6e-05 | –
7 | C11U G59A | 0.0105 ± 0.0043 | – | 0.0014 ± 0.00027 | 0.00203 ± 0.0004 | 0.00582 ± 0.0018 | 0.0116 ± 0.0016 | 0.000335 ± 3.7e-05
8 | A12C G37A | 0.00391 ± 0.0011 | 2210 ± 860 | 0.000248 ± 4e-05 | 0.000756 ± 0.00011 | 0.00182 ± 0.00028 | 0.00402 ± 0.00063 | 8.92e-05 ± 1.1e-05
9 | A12C G66A | 0.00855 ± 0.0022 | 1580 ± 570 | 0.000705 ± 0.00014 | 0.00241 ± 0.00027 | 0.00753 ± 0.0014 | 0.00648 ± 0.0015 | 0.00028 ± 7e-05
10 | C11A C16G | 0.000161 ± 3.7e-05 | – | – | – | – | 5.99e-05 ± 1.1e-05 | –
11 | C10U G32A | 2.81e-05 ± 1.1e-06 | – | – | – | 2.53e-05 ± 9.9e-06 | 2.81e-05 ± 7.9e-06 | < 1e-05
12 | A12G C16A | 3.87e-05 ± 9.1e-07 | 1330 ± 200 | – | – | – | 3.41e-05 ± 6.7e-06 | < 1e-05
13 | A12G C16G | 0.000144 ± 1.3e-05 | 7160 ± 1300 | – | – | 3.92e-05 ± 1.4e-05 | 8.35e-05 ± 1.2e-05 | –
14 | A12C U56A | 0.0197 ± 0.004 | 4980 ± 1400 | 0.000528 ± 7.5e-05 | 0.00217 ± 0.00031 | 0.0059 ± 0.00083 | 0.0135 ± 0.0011 | 0.00021 ± 2.5e-05
